Measured values as given in patent US20170204382A1.
Where two headings read alike, the source gives them in different places.

T1: GDF11 (UniProt O95390)
T1 sequence (looked up): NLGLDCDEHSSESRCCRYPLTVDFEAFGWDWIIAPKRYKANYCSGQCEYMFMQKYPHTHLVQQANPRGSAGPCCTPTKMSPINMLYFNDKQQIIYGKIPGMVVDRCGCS

T2: Activin A (UniProt P08476)
T2 sequence (looked up): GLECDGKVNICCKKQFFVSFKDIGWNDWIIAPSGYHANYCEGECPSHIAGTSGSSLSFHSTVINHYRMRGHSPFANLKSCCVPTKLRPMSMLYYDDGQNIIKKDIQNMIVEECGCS


How the values were obtained:
Test in all cases: cell-based or functional assay
GDF11 [1] = molecular target: T1, GDF11
Activin A [2] = molecular target: T2, Activin A
GDF11 [3] = molecular target: T1, GDF11; remark: listed apart in the source
Activin A [4] = molecular target: T2, Activin A; remark: listed apart in the source

IC50 (ng/mL), conditioned media (GDF11 [1]) | IC50 (ng/mL), conditioned media (Activin A [2]) | IC50 (ng/mL), conditioned media (GDF11 [3]) | IC50 (ng/mL), conditioned media (Activin A [4]) | Binder
– | – | 121 ng/mL | 325 ng/mL | ActRIIB(21-131)-hFc (Fc fusion, not shown: a dimerising Fc or GST) RGEAETRECIYYNANWELERTNQSGLERCEGEQDKRLHCYASWRNSSGTIELVKKGCWLDDFNCYDRQECVATEENPQVYFCCCEGNFCNERFTHLPEAGGPEVTYEPPPT
– | – | 69 ng/mL | 105 ng/mL | ActRIIB(24-131)-hFc (Fc fusion, not shown: a dimerising Fc or GST) AETRECIYYNANWELERTNQSGLERCEGEQDKRLHCYASWRNSSGTIELVKKGCWLDDFNCYDRQECVATEENPQVYFCCCEGNFCNERFTHLPEAGGPEVTYEPPPT
130 ng/mL | 158 ng/mL | – | – | ActRIIB(20-128)-hFc (Fc fusion, not shown: a dimerising Fc or GST) GRGEAETRECIYYNANWELERTNQSGLERCEGEQDKRLHCYASWRNSSGTIELVKKGCWLDDFNCYDRQECVATEENPQVYFCCCEGNFCNERFTHLPEAGGPEVTYEP
– | – | 71 ng/mL | 100 ng/mL | ActRIIB(22-131)-hFc (Fc fusion, not shown: a dimerising Fc or GST) GEAETRECIYYNANWELERTNQSGLERCEGEQDKRLHCYASWRNSSGTIELVKKGCWLDDFNCYDRQECVATEENPQVYFCCCEGNFCNERFTHLPEAGGPEVTYEPPPT

The next lines start with the binder.

Binder | IC50 (ng/mL), conditioned media (GDF11 [1]) | IC50 (ng/mL), conditioned media (Activin A [2]) | IC50 (ng/mL), conditioned media (GDF11 [3]) | IC50 (ng/mL), conditioned media (Activin A [4])
ActRIIB(20-131)-hFc (Fc fusion, not shown: a dimerising Fc or GST) GRGEAETRECIYYNANWELERTNQSGLERCEGEQDKRLHCYASWRNSSGTIELVKKGCWLDDFNCYDRQECVATEENPQVYFCCCEGNFCNERFTHLPEAGGPEVTYEPPPT | 120 ng/mL | 44 ng/mL | 183 ng/mL | 201 ng/mL
ActRIIB(20-132)-hFc (Fc fusion, not shown: a dimerising Fc or GST) GRGEAETRECIYYNANWELERTNQSGLERCEGEQDKRLHCYASWRNSSGTIELVKKGCWLDDFNCYDRQECVATEENPQVYFCCCEGNFCNERFTHLPEAGGPEVTYEPPPTA | 87 ng/mL | 32 ng/mL | – | –
ActRIIB(23-131)-hFc (Fc fusion, not shown: a dimerising Fc or GST) EAETRECIYYNANWELERTNQSGLERCEGEQDKRLHCYASWRNSSGTIELVKKGCWLDDFNCYDRQECVATEENPQVYFCCCEGNFCNERFTHLPEAGGPEVTYEPPPT | – | – | 60 ng/mL | 43 ng/mL
